Patent publication US10398755B2, “Clusterin pharmaceuticals and treatment methods using the same” (UNIVERSITY OF SOUTHERN CALIFORNIA, priority 2009, dated 2019)

Assays:
HA-tagged MMP-9 = biological target: T1, HA-tagged MMP-9 (Mus musculus, UniProt P41245); experiment: Immunoprecipitation assay in co-transfected HEK293 cells; assay type: cell-based
T1 construct: carrying the mouse full length cDNA of Myc-tagged CLU (CLU) or HA-tagged MMP-9 (MMP-9) were transfected; expressed in transfected cells; host or cells: HEK293
T1 sequence (P41245 108-730): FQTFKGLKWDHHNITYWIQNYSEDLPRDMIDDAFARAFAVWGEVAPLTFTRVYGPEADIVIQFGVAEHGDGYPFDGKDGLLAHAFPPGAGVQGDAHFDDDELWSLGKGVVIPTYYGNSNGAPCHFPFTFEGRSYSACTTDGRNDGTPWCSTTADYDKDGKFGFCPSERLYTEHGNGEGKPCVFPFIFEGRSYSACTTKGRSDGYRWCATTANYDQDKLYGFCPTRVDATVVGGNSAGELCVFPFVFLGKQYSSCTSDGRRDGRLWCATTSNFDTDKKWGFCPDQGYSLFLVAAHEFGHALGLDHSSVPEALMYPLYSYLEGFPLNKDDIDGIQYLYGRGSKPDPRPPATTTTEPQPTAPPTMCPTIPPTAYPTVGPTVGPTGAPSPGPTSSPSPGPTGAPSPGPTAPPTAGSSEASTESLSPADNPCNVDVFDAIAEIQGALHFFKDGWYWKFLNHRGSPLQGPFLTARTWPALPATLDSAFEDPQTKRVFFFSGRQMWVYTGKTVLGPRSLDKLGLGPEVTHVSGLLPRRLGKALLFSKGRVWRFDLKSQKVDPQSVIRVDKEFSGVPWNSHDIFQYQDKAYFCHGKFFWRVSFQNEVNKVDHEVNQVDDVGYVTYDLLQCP
Experimental: (A) pcDNA 3.1 (+) expression vectors carrying the mouse full length cDNA of Myc-tagged CLU (CLU) or HA-tagged MMP-9 (MMP-9) were transfected, alone (CLU or MMP-9) or combined (CLU+MMP-9), into HEK293 cells. Using the whole cell lysates of the transfected cells, immunoprecipitation (IP) with anti-HA antibody was performed to pull down MMP-9, and then the eluted samples were subjected to immunoblotting (denaturing 4-15% gradient SDS/PAGE gel) (IB) using anti-Myc antibody to detect CLU. The bands indicated by arrows are consistent to the forms of CLU undergoing intracellular processing. in, whole cell lysate used as input; IP, immunoprecipitated sample; Unc, Uncleaved CLU protein; β, β subunit of CLU. (B) Confocal microscopy of MMP-9 and CLU in HCLE cells. Nuclei were stained with DAPI, MMP-9 was detected by rhodamine-conjuated antibody, and CLU by FITC-conjugated antibody. In control, primary antibodies were omitted. The images were taken at 400× magnification. […]
Next, we tested whether MMP-9/CLU interaction also occurs in vivo. […] We also recognized that a stronger band of ˜50 KDa, compared with the other two IP lanes, was detected in co-transfected IP lane, which might be a non-glycosylated full-length form of CLU. […]

[1] = tested on: MMP-9 secreted from HCLE cells; experiment: TNF-alpha induction of MMP-9 secretion from stratified HCLE cells (gelatin zymography); assay type: cell-based, human; conditions: clusterin 50 ug/ml with TNF-alpha 10 ng/ml, 24 hours
Experimental: (§1) HCLE cells were grown to be confluent in KSFM media and then replenished with DMAM/F12 media to stratify cells for 7 days. To these cells in serum-free DMEM/F12 media, clusterin (50 ug/ml), bovine serum albumin (BSA, 50 ug/ml), and TNF-alpha (10 ng/ml), individually or in combination, were treated for 24 hours. The same volume of supernatants of the cell cultures treated were collected to resolve on SDS/PAGE gel containing gelatin in order to perform gelatin zymography to visualize the presence of MMP-9 secreted from the cells.
as §1, with “cells. […] Therefore, Clusterin inhibits the induction of MMP-9 from human corneal limbal epithelial (HCLE) cells. (See FIG. 10)” for “cells.”

B1: CLU: secreted disulfide-linked heterodimeric glycoprotein (70-80 KD); assays used recombinant mouse CLU with C-terminal (His)6 (protein, UniProt Q06890 22-448, looked up)
Clusterin: EQEVSDNELQELSTQGSRYINKEIQNAVQGVKHIKTLIEKTNAERKSLLNSLEEAKKKKEDALEDTRDSEMKLKAFPEVCNETMMALWEECKPCLKHTCMKFYARVCRSGSGLVGQQLEEFLNQSSPFYFWMNGDRIDSLLESDRQQSQVLDAMQDSFARASGIIDTLFQDRFFARELHDPHYFSPIGFPHKRPHFLYPKSRLVRSLMSPSHYGPPSFHNMFQPFFEMIHQAQQAMDVQLHSPAFQFPDVDFLREGEDDRTVCKEIRRNSTGCLKMKGQCEKCQEILSVDCSTNNPAQANLRQELNDSLQVAERLTEQYKELLQSFQSKMLNTSSLLEQLNDQFNWVSQLANLTQGEDKYYLRVSTVTTHSSDSEVPSRVTEVVVKLFDSDPITVVLPEEVSKDNPKFMDTVAEKALQEYRRKSRAE
modifications: C-terminal His6 tag
HA-tagged MMP-9
  co-immunoprecipitation of Myc-tagged CLU with HA-tagged MMP-9: interact in vivo even before processing of the proteins
[1]
  TNF-induced MMP-9 secretion: inhibited TNF-induced MMP-9 secretion
